Data reported in patent publication US20240002516A1 (4B TECHNOLOGIES SUZHOU, published 2024).
Residue numbers refer to the chain shown, from its start.

B1: muPHD48 (antibody, V domains shown)
VH: EVQLQQSGTVLARPGASVKMSCKASGYSFTTYWMHWVKQRPGQGLEWIGTIYPGNSDSSNNQKFKGKAKLTAVTSASTAYMELSSLTNEDSAVYYCTRFYYEDWYFDVWGAGTTVTVSS
VL: QIVLTQSPAIMSASPGEKVTISCSASSSVSYMYWFQQKPGSSPKPWIYRTSNLASGVPARFSGSGSGTSYSLTISSMEAEDAATYYCQQYHSYPPTFGGGTKLEIK
notes: Mouse hybridoma monoclonal antibody
B2: muPHD50 (antibody, V domains shown)
VH: EVQLQQSGTVLARPGASVKMSCKASGYIFTSYWMHWVKQRPGQGLEWIGAIYPGDSDTNYNQKFKGKAKLTAVTSASTAYMELSSLTNEDSAVYYCTRYGNYAGYYHMDYWGQGTSVTVSS
VL: QIVLTQSPALMSASPGEKVTMTCSASSSVSYIYWYQQKPRSSPKPWIYLTSNLASGVPARFSGSGSGTSYSLTISSMEAEDAATYYCQQWSSNPLTFGAGTKLELK
notes: Mouse hybridoma monoclonal antibody; also called muPHID50
B3: PHD48-08 (antibody, IgG4, V domains shown)
VH: QVQLVQSGAEVKKPGASVKVSCKASGYTFTTYWMHWVRQAPGQGLEWIGTIYPGNSDSSNAQKFQGRVTLTADTSTSTAYMELSSLRSEDTAVYYCTRFYYEDWYFDVWGQGTTVTVSS
VL: DIQMTQSPSSLSASVGDRVTITCRASSSVSYLYWFQQKPGKAPKPLIYRTSNLASGVPSRFSGSGSGTDYTLTISSLQPEDFATYYCQQYHSYPPTFGGGTKVEIK
B4: PHD48 (antibody, V domains shown)
VH: B3 VH with A72R
VL: B3 VL
notes: also called full-length PHD48 antibody
B5: PHD29 (antibody, V domains shown)
VH: B3 VH with S58T, N60F, A72R, Y101F
VL: B3 VL with V29I, Y31W, R49Y, N52S, A54G, Y90W
B6: PHD22 (antibody, V domains shown)
VH: B3 VH with T31E, S58T, N60Y, A72R, Y101F
VL: B3 VL with V29I, Y31W, R49Y, N52T, A54G, Y90W
B7: PHD28 (antibody, V domains shown)
VH: B3 VH with S58T, N60L, A72R, Y101F
VL: B3 VL with V29I, Y31W, R49Y, N52S, A54G, Y90W
B8: PHD24 (antibody, V domains shown)
VH: B3 VH with S58T, N60L, A72R, Y101F
VL: B3 VL with V29I, Y31W, R49Y, N52T, A54G, Y90W
B9: PHD25 (antibody, V domains shown)
VH: B3 VH with S58T, N60F, A72R, Y101F
VL: B3 VL with V29I, Y31W, R49Y, N52T, A54G, Y90W
B10: PHD26 (antibody, V domains shown)
VH: B3 VH with T31E, S58T, N60Y, A72R, Y101F
VL: B3 VL with V29I, Y31W, R49Y, N52S, A54G, Y90W
B11: PHD30 (antibody, V domains shown)
VH: B3 VH with T31E, N60F, A72R
VL: B3 VL with V29I, N52S, A54G
B12: PHD49-11 (antibody, IgG4, V domains shown)
VH: QVQLVQSGAEVKKPGSSVKVSCKASGYTFSSYWMQWVRQAPGQGLEWIGAIYPGDDDTIYTQKFKGRATITADKSTSTAYMELSSLRSEDTAVYYCARNYDYQAWFAYWGQGTLVTVSS
VL: B3 VL with F35Y, L46W, R49L, Y90W, H91S, Y93N, P95L, G99Q, V103L
B13: PHD49-05 (antibody, V domains shown)
VH: B12 VH with Y32H, M34I, K65Q, A72T
VL: B3 VL with F35Y, R49L, N52S, Y90W, H91S, Y93N, P95L, G99Q, V103L
B14: PHD49 (antibody, V domains shown)
VH: B12 VH with Y27F, M34I, P53T, D56G, K65Q, A72T, K74E, D101H, A107D
VL: B3 VL with F35Y, R49L, N52S, Y90W, H91S, Y93N, P95L, G99Q, V103L
B15: PHD49-21 (antibody, V domains shown)
VH: B12 VH with Y27F, M34I, P53T, D56G, K65Q, A72T, K74E, D101H, A107D
VL: B3 VL with F35Y, R49L, N52D, Y90W, H91S, Y93N, P95L, G99Q, V103L

Target: T1, extracellular domain (ECD) of human TrkA protein, N-terminal flag tag and C-terminal His tag (PHA) (human, UniProt P04629 33-423)
T1 construct: Made in 293-F cells and purified by IMAC; also called TrkA ECD protein; TrkA (ECD); not shown: flag tag at the N-terminus (after the signal peptide); His tag at the C-terminus
Assay: indirect ELISA on coated PHA (human TrkA ECD, 1 ug/mL), anti-mouse IgG-HRP, OD450
Procedure: Hybridoma supernatants were initially screened with human TrkA by indirect ELISA. Briefly, purified PHA was diluted to a final concentration of 1 μg/mL in PBS buffer. 100 μL of the diluted antigen was added to each well of a 96-well plate, and incubated at 4° C. overnight. The plates were washed with PBST (PBS comprising 0.05% Tween-20, pH 7.4) for three times, then 200 μl/well of 2% bovine serum albumin (BSA) diluted in PBST was added and incubated at room temperature for 2 hours for blocking. The blocking solution was removed, and the plate was washed 3 times with 300 μl PBST. The diluted solutions of primary and secondary antibodies, along with substrate solution was prepared. 100 μl of diluted primary antibody was pipetted in each well and was incubated for 1 hour at room temperature. The content in the wells was removed and washed for 3 times with 300 μl PBST buffer. PBS was removed from the plates. 100 μl of diluted Peroxidase-AffiniPure Goat Anti-Mouse IgG was added in each well and incubated for 1 hour at 37° C. The content in the wells was removed and the wells were washed for 3 times with 300 μl PBST. 100 μl of TMB substrate solution was added to the wells. After sufficient color development, 100 μl of stop solution was added to the wells to terminate the reaction. Read the absorbance (OD: 450) of each well with a microplate reader and the data were analyzed.

T1 sequence (P04629 33-423): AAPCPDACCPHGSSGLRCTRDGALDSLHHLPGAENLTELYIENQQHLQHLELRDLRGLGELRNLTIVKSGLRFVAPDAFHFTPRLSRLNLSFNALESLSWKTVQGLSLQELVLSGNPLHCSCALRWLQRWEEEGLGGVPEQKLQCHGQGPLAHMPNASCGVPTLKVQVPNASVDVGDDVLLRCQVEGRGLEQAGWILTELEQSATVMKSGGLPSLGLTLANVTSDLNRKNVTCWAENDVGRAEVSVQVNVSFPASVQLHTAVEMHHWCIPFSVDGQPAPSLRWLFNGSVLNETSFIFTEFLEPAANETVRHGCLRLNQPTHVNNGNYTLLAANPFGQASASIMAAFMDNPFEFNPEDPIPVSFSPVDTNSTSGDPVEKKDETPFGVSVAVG

Row | Binder | EC50 [nM] | Top [OD450]
1 | B1 | 0.37 | 2.16
2 | B2 | 0.428 | 1.65

Target: T2, human TrkA on CellSensor TrkA-NFAT-bla CHO-K1 cells (human, UniProt P04629 33-796)
Assay: cell-based or functional assay

T2 sequence (P04629 33-796 limits assumed, form in doubt): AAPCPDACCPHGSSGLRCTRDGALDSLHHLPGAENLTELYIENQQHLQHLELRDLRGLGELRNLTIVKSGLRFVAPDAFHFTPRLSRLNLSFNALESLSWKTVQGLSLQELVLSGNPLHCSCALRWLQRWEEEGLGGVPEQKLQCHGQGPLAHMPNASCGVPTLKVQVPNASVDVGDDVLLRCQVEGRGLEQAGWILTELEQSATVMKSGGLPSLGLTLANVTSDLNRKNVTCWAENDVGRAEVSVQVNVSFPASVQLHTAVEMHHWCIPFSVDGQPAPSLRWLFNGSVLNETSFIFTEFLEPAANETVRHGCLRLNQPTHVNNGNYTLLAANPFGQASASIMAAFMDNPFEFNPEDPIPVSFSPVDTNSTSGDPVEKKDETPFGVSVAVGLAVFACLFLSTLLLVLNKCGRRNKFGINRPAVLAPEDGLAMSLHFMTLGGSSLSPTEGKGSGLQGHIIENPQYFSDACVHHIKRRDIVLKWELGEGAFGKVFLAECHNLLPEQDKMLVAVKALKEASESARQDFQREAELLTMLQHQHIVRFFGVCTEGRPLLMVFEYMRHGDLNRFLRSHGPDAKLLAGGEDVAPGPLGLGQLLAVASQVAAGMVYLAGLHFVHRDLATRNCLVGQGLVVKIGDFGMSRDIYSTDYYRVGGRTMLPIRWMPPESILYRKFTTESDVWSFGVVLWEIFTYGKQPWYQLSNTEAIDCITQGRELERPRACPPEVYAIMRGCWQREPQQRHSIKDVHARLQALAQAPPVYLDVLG

Row | Binder | IC50 in NFAT antagonistic assay [nM]
3 | B1 | 0.411

Target: T1, extracellular domain (ECD) of human …
Assay: SPR (BIAcore T200), antibody on protein G chip, PHA 0.625-20 nM injected
Procedure: The binding kinetics and affinities of the humanized antibodies were determined using a BIAcoreT200™ SPR system. Approximately 30 RU of the humanized antibody was immobilized on a protein G sensor chip and serial 2-fold dilutions of the PHA (0.625-20 nM) in 1×HBS-EP+ buffer were injected over the antibody-bound surface at a flow rate of 30 μl/min.

Row | Binder | Kd [nM] | koff [s⁻¹] | kon [M⁻¹ s⁻¹]
4 | B3 | 2.77 | 0.00045 | 163000
5 | B4 | 1.87 | 0.000413 | 220000

Target: T2, human TrkA on CellSensor TrkA-NFAT-bla …
Assay: FACS on CellSensor TrkA-NFAT-bla CHO-K1 cells (human TrkA), APC goat anti-mouse IgG
Procedure: (§1) The ELISA-positive antibody producing clones were further verified by fluorescence-activated cell sorting (FACS) using a conventional method. Briefly, CellSensor® TrkA-NFAT-bla CHO-K1 cells (cells overexpressing human TrkA) were stained with anti-TrkA antibody in U-bottom 96-well plates. The cells were resuspended to 2×10⁶ cells/ml in ice cold PBS. The diluted solutions of primary and secondary antibodies were prepared, and 100 μl of the diluted primary antibody was added in each well, and incubated for 1 hours at 4° C. in the dark. The cells were washed for 2 times by centrifugation at 2500 rpm for 3 min and resuspended in ice cold PBS. The APC Goat anti-Mouse IgG was diluted in cold PBS at the […] and then the cells were resuspended in 100 μl of this solution. The cells were washed for 2 times by centrifugation at 2500 rpm for 3 min and resuspended in 100 μl ice cold PBS. The cell suspension was stored immediately at 4° C. in the dark. The cells were analyzed on the flow cytometer as soon as possible.

Row | Binder | EC50 [µg/mL]
6 | B1 | 0.341
7 | B2 | 0.326

Target: T1, extracellular domain (ECD) of human …
Assay: BLI (ForteBio)

Row | Binder | Kd [nM] | koff [s⁻¹] | kon [M⁻¹ s⁻¹]
8 | B5 | 11.9 | 0.00441 | 371000
9 | B6 | 23.8 | 0.0113 | 473000
10 | B7 | 18.4 | 0.00764 | 415000
11 | B8 | 11.6 | 0.00518 | 446000
12 | B9 | 12.3 | 0.00471 | 383000
13 | B10 | 16.6 | 0.00811 | 490000
14 | B11 | 7.23 | 0.00351 | 486000

Target: T2, human TrkA on CellSensor TrkA-NFAT-bla …
Assay: FACS on CellSensor TrkA-NFAT-bla CHO-K1 cells (human TrkA), APC goat anti-mouse IgG; y axis without label
Procedure: as §1

Row | Binder | Top
15 | B1 | 239000
16 | B2 | 268000

Target: T2, human TrkA on CellSensor TrkA-NFAT-bla …
Assay: cell-based or functional assay
Remark: another data set of the same source

Row | Binder | Top; inhibition of NGF-induced TrkA activation in TrkA-NFAT-bla CHO-K1 reporter cells [Response Ratio]
17 | B1 | 0.862

Target: T1, extracellular domain (ECD) of human …
Assay: BLI (Octet Red384), as in Example 4
Procedure: The bio-layer interferometry (BLI) method was used to determine the affinities of the antibodies, employing Octet Red384. Briefly, anti-human Fc-coated biosensor AHQ tips (ForteBio) were put into PBS with 0.1% w/v bovine serum albumin and 0.05% Tween-20 for a minimum of 10 min in the pre-wetting plate. The purified antibodies (100 nM in PBS with 0.1% bovine serum albumin and 0.05% Tween-20 (assay buffer)) were captured on AHQ biosensors (ForteBio) at a level of about 1 nm. The loaded biosensors were washed with an assay buffer to remove any unbound protein. Then, the association rates, dissociation rates and response were measured, using an antigen of 100 nM (in PBS with 0.1% bovine serum albumin and 0.05% Tween-20).
Two rounds of humanizations were further performed. […] In the second round, many other variants were further constructed (including several mutations in the CDR sequences). Quickchange based site-directed mutagenesis or overlap PCR were performed to create expression plasmid of new versions of 2nd round humanized antibodies. All recombinant antibodies were expressed and purified as described in Example 1, then measured antigen binding affinity using BLI technology with the Octet Red384 instrument as mentioned above. To compare the functional activity of humanized antibodies with chimeric antibodies, NFAT assay was also performed.

Row | Binder | Kd [nM] | koff [s⁻¹] | kon [M⁻¹ s⁻¹]
18 | B12 | 10.6 | 0.00207 | 196000
19 | B3 | 1.38 | 0.000331 | 240000

Target: T2, human TrkA on CellSensor TrkA-NFAT-bla …
Assay: cell-based or functional assay
Remark: another data set of the same source

Row | Binder | NFAT IC50 [nM]
20 | B13 | 170
21 | B14 | 266
22 | B12 | 269
23 | B3 | 188
24 | B4 | 66.5
25 | B15 | 124

Target: T1, extracellular domain (ECD) of human …
Assay: affinity after affinity maturation; method not stated in Example 5

Row | Binder | Kd [nM] | koff [s⁻¹] | kon [M⁻¹ s⁻¹]
26 | B13 | 0.583 | 0.000174 | 299000
27 | B14 | 0.174 | 5.21e-05 | 300000
28 | B15 | 0.259 | 9.51e-05 | 367000
